Measured values published in EP2431054A2 (Human Genome Sciences, Inc., dated 2012).

T1: TACI-Fc fusion protein (Homo sapiens (Human), UniProt O14836 1-159)
T1 construct: The dimeric form was enriched by size exclusion; also called full-length TACI-Fc; soluble TACI-Fc; not shown: Fc portion from vector pC4-Fc
T1 sequence: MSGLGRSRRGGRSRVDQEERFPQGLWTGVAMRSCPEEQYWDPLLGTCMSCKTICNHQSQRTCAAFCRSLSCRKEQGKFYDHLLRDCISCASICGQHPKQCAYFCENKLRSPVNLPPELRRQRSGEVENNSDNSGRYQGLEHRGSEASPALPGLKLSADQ


Tests used:
[1] = target: FLAG-epitope-tagged TNF-epsilon (in conditioned medium) (human) (UniProt O75888); assay: co-immunoprecipitation with M2 anti-FLAG antibody, Western detection with anti-FLAG antibody
TACI-Fc fusion protein = target: T1, TACI-Fc fusion protein; assay: BIAcore (SPR), TACI-Fc amine-coupled to CM5 chip, TNF-epsilon as analyte

| percent of the TNF-epsilon present in the conditioned medium found in the immunoprecipitated TACI-Fc-TNF-epsilon complex [1] | Kd (TACI-Fc fusion protein) | Binder |
| --- | --- | --- |
| 20% | – | TACI-Fc fusion protein (Fc fusion, not shown: a dimerising Fc or GST) MSGLGRSRRGGRSRVDQEERFPQGLWTGVAMRSCPEEQYWDPLLGTCMSCKTICNHQSQRTCAAFCRSLSCRKEQGKFYDHLLRDCISCASICGQHPKQCAYFCENKLRSPVNLPPELRRQRSGEVENNSDNSGRYQGLEHRGSEASPALPGLKLSADQ |
| – | 6 nM | TNF-epsilon, trimeric form isolated by size exclusion chromatography (ligand, This is the protein flowed over the TACI-Fc chip) AVLTQKQKNDSDVTEVMWQPALRRGRGLQAQGYGVRIQDAGVYLLYSQVLFQDVTFTMGQVVSREGQGRQETLFRCIRSMPSHPDRAYNSCYSAGVFHLHQGDILSVIIPRARAKLNLSPHGTFLGFVKL |
